This data set in a line: label from the status in PepcDB records.
As to “MLNALKNRLRVWYDPEMKAIARIIREMNSKGGDDLVVTECNKVFVDRLRVFPIALKMDFWEHHFELEGFSDFPEIGGDILDFGCGSGHLDVYLARRGFTVTGVDLSPVGIAIASFIRENEAADVKKRLLFFVADVTADLPPRQFDAAWSAHVFEHIKNPGPVLAGLKNWIKPGGSLLISVPFGRAYDDPGHVNHFYSEADLQHYLGGHISVERIKIYRDHQVIRALCKNDGDGKNDR”, the protein production result is given as “failed”.
Next, “MLNFKTFSDLRPKKTRAFVFVKILRLWNWPPNYFGEEPTMILVDEKGHRIDAKSSRHAYKEEMISTLREGKWYILSNFKVVVANPLERFSTHVFQIEFLKKTTMEPVTPKSRYHFIECVDFHTIKHAAPIQKKFVVDAMGVIESVSPIGKIPWVARDWESDFASRYLVFTLKDSMHKYIKCVAVGSSCEEFERKWYKKISEPNFKMEPVMIILRFWKISEFEGKPCLISVYGCSKVHIDPNFRGIDKNNYL”: “failed”; “MLNKVNLADIRSFVLIAQLGNFTKAAEALSVSRSHVSRQISGLEAQMGVTLLNRTTRTLRLTHAGERFYHDCEKALRDIDQALIAAVDDTQEIRGVIRVNCVGGYIGEDIIAKYVCEFMQQYPNVSIDLDFSSPRIDLIEDQFDVAFRMGELDDAGFVARKLMTVDMVTLASPSYVQQYGMPIHPKELAEHRTLTGSVARWSYRKADNPNDHTDVVVKGNLRCKNGRALVMGALHGNGIIRVPLSYCAEEVELGQLIKVMPNWEIPSVPFSAIFHRDRYQPKRLRTFIDFIKQKFEDS”: “failed”.
Next, “MLNMQRLQTVLLQCAGWLLYMSLLMLIALALPADIFDSQSKHFIFLVGAVGIWRYSMGATHFIRGMIFLYGVYPYLRRKVQKMGNATDPSHVYLMVTSFRIEALTTAQVYSSVIREAINCGFPTTVVCSLVEMSDELLVKSLWAKYNPPAHVKLDIVRIAGTGKRDGLAYGFRAISRMLPDENAVVAVIDGDTVLADGVVRKTVPWFKLFPNVGGLTTNEFCEVRGGYIMSEWHKLRFAQRHINMCSMALSKRVLTMTGRMSMFRASVVTNPEFIADVESDSLMHWRLGRFKFLTGDDKSSWFSLMRLGYDTFYVPDAAINTVEHPPEKSFLKASRKLMYRWYGNNLRQNSRALGLGLRRLGLFTSIVLFDQRVSMWTSLLGLTVAVIASLKFGMAFLLVYLLWIGITRLILTIMLLCSGHNVGPAYPLILYYNQIIGALMKIYVFFRLDKQSWTRQPTALKRDLASFQQWFNTWSSRTMTFSAASIFVAVLFMVV”: “failed”; “MLNRVFLEGEIESSCWSVKKTGFLVTIKQMRFFGERLFTDYYVIYANGQLAYELEKHTKKYKTISIEGILRTYLERKSEIWKTTIEIVKIFNPKNEIVIDYKEI”: “not failed”.
To “MLNSHPKKTQSLYRAGLVVLQITESLLILALLYQAINKLIFINNYSIKFMLTFILYSPEFFMANLTTYYFIYEKFKILHSIIVITKLFQIILTLLLFILGFIFKIYVYQTSLAIILGITVVYLVFNVTILVLIKAKIKNLE” belongs “failed”; to “MLNYRQLHYFWVVAKTGSIVRACEQLNLTAQTVSGQISLLEAALGVDLFQRVGRRLEMTEAGRLALPYAEQMFQLGDELESLLRSQPDEQQLLLRIGVADVVPKSIVYRLIAPTMELAEPIRITCREDKLERLLADLAIQRLDLVISDSPMPPHLDIKGYSQKLGECGVTFFATREVAERVGSDFPQCLHGAPLLIPGQETVVRGRLMRWFAEQKIQPRIIGEFDDSALMKAFGKSGSGIFVAPSVIVDEVQGQYGVQVIGQTDAVTESFYAITVERKVRHPGVVAIAESARNQLFTDAG”, “failed”.
On to “MLPAEYNVLVDYTGASTFTTFFFLLFFYVLDCYNVGHEDVRDSIARVSVASVLGIIFTGFTFYSFEHWRFERTTFVVLLLLVVGMTLLWRMVYHRFGQRFTTRPRVVLVGVDRAGRVRKLLNEGMPEAEILGYVGEGDVDPDAGPCLGAPYEPVEIARRYGATMLVMLPDAPVDEDIARDLLDAKLRGLMVVDIRTLYEHVAKRIPVDQIRDEWLLTEDGFNLNTQGSVRRLKRAFDVIVSLSLLITTAPIMLVAAIAIRMESPGPVIYRQKRVGINEQEFMVLKFRSMRTDAEKDGAVWATKGDSRVTRVGRFIRKVRIDELPQLWNVLRGDMSMIGPRPERMEFVRQLEKVIPYFYVRHSVKPGITGWAQVCYPYGASVEDARYKLEYDLYYIKNMSPLLDIQIVLKTVGVILFPKGAR”, for which the protein production result was “failed”.
To “MLPDSSVRLNKYISESGICSRREADRYIEQGNVFLNGKRATIGDQVKPGDVVKVNGQLIEPREAEDLVLIALNKPVGIVSTTEDGERDNIVDFVNHSKRVFPIGRLDKDSQGLIFLTNHGDLVNKILRAGNDHEKEYLVTVDKPITDEFIRGMGAGVPILGTVTKKCKVKKEAPFVFRITLVQGLNRQIRRMCEHFGYEVKKLERTRIMNVSLSGIPLGEWRDLTDDELIDLFKLIENSSSEAKPKAKAKPKTAGIKRPVVKMEKTAEKGGRPASNGKRFTSPGRKKKGR” belongs “not failed”; to “MLPDVQLLKPEVPIGLSRVGATGIKKLVEVQREGKRPIILISTFDVFVDLPAHLKGVNLSRNFEVIDEVLETLTAKPIENIEDLVVEIADHLLKRHEYATKAEARMNSELIMRKRTPKTGQRTQEVVKIFGEATLGRDGSKVIMVGVEVTGITACPCAQELVKASSAERLAKMGFDEETIQKILDAIPVATHNQRGRATLKVQVTDSFKVPIAKLIDVAKSSMSYETYEILKREDELAVVEAAHRNTRFVEDGVRYMAMELLKTFPNAPDDILVFLRQENEESIHQHNVVAERFA”, “failed”; to “MLPGVGVFGTSLTARVIIPLLKDEGFAVKALWGRTQEEAEELAKEMSVPFYTSRIDEVLLHQDVDLVCINLPPPLTRQIAVKTLGIGKNVICDRTATPLDAFRMTSAAHYYPKLMSIMGNVLRFLPAFVRMKQLIEEGYVGEPLVCEVQVHGGSLLGKKYNWSCDDLMGGGGLHSVGTYIIDLLTFLTGQKAVKVHGLLKTFVKQTDHIKGIRQITSDDFCTFQMVLEGGVCCTVTLNFNVPGEFKQDVTVVGSAGRLLAVGTDLYGQRNSAPEQELLVQDATPVSNSLLPEKAFSDIPSPYLRGTIKMMQAVRQAFQDQDDRRTWDGRPLTMAATFDDCLYALCVVDTIKRSSQTGEWQNIAIMTEEPELSPAYLISEAMRRSRMSLYC”, “failed”.
Next, “MLPLSLLKTAQGHPMLVELKNGETYNGHLVNCDTWMNIHLREVICTSKDGDRFWRMPECYIRGNTIKYLRVPDEVIDKVQEEKTRTDRKPPGVGRGRGRGVDDGGARGRGRGTSMGKMGGNRGAGRGRG”: “failed”; “MLPPGMVAAESDFYLRRLWGLPHEDLKSEPRYLATFTVGINQKANIDACVKKFSENFTIVLFHYDGRVTEWDEFEWSKTAIHISVRKQTKWWYAKRFLHPDIVARYDYIFVWDEDLGVEHFNAEEYVKMVKKHGLEISQPGLEPNQGLTWQMTKRRGDMEVHKITEERPGWCSDPHLPPCAAYVEIMAPVFSRNAWRCVWHVIQNDLVHGWGLDFALRRCVEPAHEKIGVVDSQWVVHQSFPSLGNQGEATDGKAPWQGVRDRCKKEWTMFQSRMANAEKDYFKSLQVEGSSNSTATTI”: “failed”; “MLPQILIVILSLIEGLDPYKGLLFSYYFYSFKKVKESFVVPLLSTLSYYSLGILVVFFTFSSLQSSNSTKVIVIFLVIIHILMKMFLGKLLHYTGSMRVSVYNLVKSTFLNSILQMNVILLIILAIIVNTLFVFLPVGVFIVREVTYFIVLKKNNVLVLLTKFNFDYIYSVTLLILALAVLLQS”: “failed”.
Next, “MLPRVHRVRRGGTVYKYHRRTRKELPRDVPEDDPRFVAAWLAEEQRAPTVRSRSQAGTIAAACEAYLGSRSYRELSDGYRPVIRRHVERIKEQGEKALLKDLLPRHIRADLEPLSPPVASSRLKAWRKLAEFWLLKGMLDADPSEGVKRKKMGKVAGFTEWTAEDLEAFRARWPIGTAQRLALELYQWTGARCVDVIRLGPQMVGRDGVLTYVQQKTGNPAHVPWTCPAFGLEEQRADLMRCLPVGSPVYMLTEYGKPRTQKGVSQWFSAAAREAGLESRTAHGLRKYRMNALAEHGASVLVMQSWVGHTTLLEVQEYTRRADRRRVISGGHPVKRDPAGA”: “failed”.
Turning to “MLPSESTLLTNATILTGTGERINNGDILLVNGKVTQVGNNLSVEQATVIDMKGKWITPGIIDVHSHLGVYPNPEVLEHHHHHH”, the protein production entry is “not failed”.
Next, “MLPVASLLILVPLIFAVVTFFTKTKQLAAGFGFLGSLATLGLTLYAYLNFDSSTAAMQFYESVSWIPFLGVNYSVGIDGVSMPLILLNAIVIPFMILFTWKEEMESPNRFYGLILTMQAAVIGVFVALDFVVFYIFWELTLVPLFFIVNLWGGANRAHASYKFFIYTHVASLVMLLGIFGLFYTALNQTGVPTFDIRELIAQFQFFEPGLMKDGIFLAILFGFLAKLPAFPFHSWLPDAYSEAPTAGSILFILLKIGGYGLFRISLPMLPNTGSPQLMIMILGLLGSVSILYGALLALRQKDLKRMIAYSSLSHMGYVILGSAGLVTLSVSGAMFQQFSHGLIMSIMFMSAGAIQTAAGTRIINELGGLAKKMPMLTVAMMVGFMASLGLPGLTGFIAEFLVLTFTFTNLPVFVVIALLAIVVTAGYHLWAMQRAMFGVYNEKLGDVRDINSIQVFSMAVIALLVLYFGLNPSPVLDMMINNSEAIVSLAAGMGV”: “failed”; “MLPVQILKDNAQEERGESARLSSFVGAIAIGDLVKSTLGPKGMDKILISGNPESAGGIKVTNDGATILKSIGVDNPAAKVLVDMSMTQDHEVGDGTTSVTVLAAELLKEAEKLVNQRIHPQTIISGYRRALGIAQESLKKSSIESGDNIRDDLLKIARTTLGSKILSQHKEHFAQLAVDAVLRLKGSGNLDAIQIIKKLGGSMNESYLDEGFLLEKLPGMFQPRRVEKAKILIANTPMDTDKVKVFGSRVRVDGVAKVAELEAAEKLKMKEKVDKILAHNCNVFINRQLIYNYPEQLFADAKVMAIEHADFEGIERLALVLGGEIVSTFDSPQTAQFGSCDLIEEIMIGEDRLLRFSGVKLGEACSVVLRGATQQILDESERSLHDALCVLVTHVKESKTVAGAGASEILMSSAIAVEAQKVAGKEALAVEAFGRALAQLPTIICDNAGLDSAELVTRLRAEHANGRHNMGIDIEKGEVADVTKLGVIESYNVKLCMVSSAAEATEQILRVDDIIKAAPRARAQDNRPC”: “not failed”.
To “MLQCGAKNVNPLERFVSSLPVAAVLPELLAALDGASQVLLSAPTGAGKSTWLPLQLLAHPGINGKIILLEPRRLAARNVAQRLAELLNEKPGDTVGYRMRAQNCVGPNTRLEVITEGVLTRMIQRDPELSGVGLVILDEFHERSLQADLALALLLDVQQGLRDDLKLLIMSA” belongs “failed”.
To “MLQEDLRKKAGQLFAVGFHGVVPSPEIKTLIHEYGIGGIVLFKRNIQNAMQLQLPGPMALGATHSPELAYQVGQVTGETLRFFGINMNYAPVCDINSEPLNPVIGPRSPGDDPEFVGRFASAAAQGLREQKIIPSVKHFPGHGDTAVDSHYGLPVIEKTREQLERCELIPFRRAVAEGVEAVMTAHISLPAIGDGKLPATLSADVLSILRNEMQFEGMIITDCLEMDGIRATYGTEQGAVLSLEAGSDSIMICHTYAVQVASIQKVCEAVQSGQLSASRLEEAYRRVVKLKSKFLSWDTALLTRSLDDLVTLNRKAA” belongs “failed”.
